Laboratory results reported in patent publication US11472855, “RNA-binding protein” (Panitch Schwarze Belisario & Nadel LLP).

Key:
Settings in all cases: label: Alexa680 at 5' and 3'
[1] = molecular target: T1, hPUF_MT(R4→R6_N12S,Q16R, R6_N12S,Q16R) (UniProt Q14671 SEQ:1-349); experiment: EMSA; comparable to or relatively weaker than WT U recognition
T1 chain: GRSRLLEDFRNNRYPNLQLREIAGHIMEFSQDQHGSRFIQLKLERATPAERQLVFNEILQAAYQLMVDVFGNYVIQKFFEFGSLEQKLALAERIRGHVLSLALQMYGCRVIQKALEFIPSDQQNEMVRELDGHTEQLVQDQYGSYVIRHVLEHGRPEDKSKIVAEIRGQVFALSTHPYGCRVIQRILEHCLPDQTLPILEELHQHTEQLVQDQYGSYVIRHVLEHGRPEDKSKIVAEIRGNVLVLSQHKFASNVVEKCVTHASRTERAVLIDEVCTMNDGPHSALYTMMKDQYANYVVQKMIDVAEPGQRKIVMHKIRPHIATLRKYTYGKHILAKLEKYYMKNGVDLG

[2] = molecular target: T2, hPUF_MT(R5:G_13R)3(R6:U_13Y)3; experiment: EMSA
T2 chain: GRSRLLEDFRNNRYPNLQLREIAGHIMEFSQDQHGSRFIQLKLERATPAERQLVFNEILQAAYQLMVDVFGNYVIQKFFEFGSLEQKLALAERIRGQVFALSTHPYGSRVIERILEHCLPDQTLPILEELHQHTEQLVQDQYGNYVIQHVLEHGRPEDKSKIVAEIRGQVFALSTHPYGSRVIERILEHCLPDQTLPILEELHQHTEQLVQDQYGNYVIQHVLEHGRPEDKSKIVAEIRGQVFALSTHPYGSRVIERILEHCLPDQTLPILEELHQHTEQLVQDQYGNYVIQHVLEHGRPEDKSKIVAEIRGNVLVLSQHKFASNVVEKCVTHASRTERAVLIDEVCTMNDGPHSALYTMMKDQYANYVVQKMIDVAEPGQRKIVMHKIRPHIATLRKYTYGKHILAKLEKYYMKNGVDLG

hPUF_MT(R3→R5, R4→R5) = molecular target: T3, hPUF_MT(R3→R5, R4→R5); experiment: EMSA; A-A stacking: H=Y>R>F=W>K
T3 chain: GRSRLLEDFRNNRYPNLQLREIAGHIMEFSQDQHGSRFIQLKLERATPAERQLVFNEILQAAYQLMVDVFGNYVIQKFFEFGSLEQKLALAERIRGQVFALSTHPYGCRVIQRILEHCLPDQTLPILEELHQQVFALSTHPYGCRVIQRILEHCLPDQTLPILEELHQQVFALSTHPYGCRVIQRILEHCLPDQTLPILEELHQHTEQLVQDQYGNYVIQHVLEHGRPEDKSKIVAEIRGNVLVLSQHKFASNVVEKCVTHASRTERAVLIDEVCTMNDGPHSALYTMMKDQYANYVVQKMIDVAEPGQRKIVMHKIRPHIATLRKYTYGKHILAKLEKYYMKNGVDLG

[3] = molecular target: T4, hPUF_MT(R3→R5, R4→R5_R13Y, R5_R13Y); experiment: EMSA; H=Y>R>F=W>K
T4 chain: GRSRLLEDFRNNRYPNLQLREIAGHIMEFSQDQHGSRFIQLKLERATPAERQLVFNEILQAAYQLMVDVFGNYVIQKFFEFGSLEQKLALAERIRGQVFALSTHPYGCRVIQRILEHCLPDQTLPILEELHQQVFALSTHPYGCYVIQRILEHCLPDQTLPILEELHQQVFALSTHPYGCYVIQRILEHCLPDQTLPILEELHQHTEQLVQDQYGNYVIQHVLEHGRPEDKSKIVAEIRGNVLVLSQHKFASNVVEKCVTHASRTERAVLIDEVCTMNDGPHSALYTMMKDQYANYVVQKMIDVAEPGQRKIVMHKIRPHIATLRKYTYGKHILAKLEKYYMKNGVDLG

[4] = molecular target: T5, hPUF_MT(R3→R5, R4→R5_R13H, R5_R13H); experiment: EMSA; H=Y>R>F=W>K; Example 5-2 states a different order
T5 chain: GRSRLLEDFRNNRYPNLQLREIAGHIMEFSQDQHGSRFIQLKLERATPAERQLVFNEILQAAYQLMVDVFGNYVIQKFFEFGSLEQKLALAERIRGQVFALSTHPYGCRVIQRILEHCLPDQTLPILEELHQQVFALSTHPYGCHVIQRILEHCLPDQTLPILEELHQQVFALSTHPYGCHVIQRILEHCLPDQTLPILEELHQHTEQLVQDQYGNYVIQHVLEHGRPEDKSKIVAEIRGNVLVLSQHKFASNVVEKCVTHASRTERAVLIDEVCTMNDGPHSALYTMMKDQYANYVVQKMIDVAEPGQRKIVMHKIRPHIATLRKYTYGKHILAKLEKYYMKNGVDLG

[5] = molecular target: T6, hPUF_MT(R4→R6_N12S,Q16E, R6_N12S,Q16E) (UniProt Q14671 SEQ:1-349); experiment: EMSA; comparable to or relatively weaker than WT U recognition
T6 chain: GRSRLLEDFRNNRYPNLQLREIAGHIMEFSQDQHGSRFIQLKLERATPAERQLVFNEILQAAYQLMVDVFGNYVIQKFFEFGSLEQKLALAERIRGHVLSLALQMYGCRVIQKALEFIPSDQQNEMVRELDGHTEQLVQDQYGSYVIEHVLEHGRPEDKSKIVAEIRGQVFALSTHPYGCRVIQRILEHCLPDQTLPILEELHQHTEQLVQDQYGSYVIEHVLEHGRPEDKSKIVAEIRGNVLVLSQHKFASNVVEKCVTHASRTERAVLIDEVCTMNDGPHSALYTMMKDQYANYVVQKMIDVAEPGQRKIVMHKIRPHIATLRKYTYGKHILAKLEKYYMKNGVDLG

[6] = molecular target: T7, hPUF_MT(R4→R6_N12C, R6_N12C) (UniProt Q14671 SEQ:1-349); experiment: EMSA
T7 chain: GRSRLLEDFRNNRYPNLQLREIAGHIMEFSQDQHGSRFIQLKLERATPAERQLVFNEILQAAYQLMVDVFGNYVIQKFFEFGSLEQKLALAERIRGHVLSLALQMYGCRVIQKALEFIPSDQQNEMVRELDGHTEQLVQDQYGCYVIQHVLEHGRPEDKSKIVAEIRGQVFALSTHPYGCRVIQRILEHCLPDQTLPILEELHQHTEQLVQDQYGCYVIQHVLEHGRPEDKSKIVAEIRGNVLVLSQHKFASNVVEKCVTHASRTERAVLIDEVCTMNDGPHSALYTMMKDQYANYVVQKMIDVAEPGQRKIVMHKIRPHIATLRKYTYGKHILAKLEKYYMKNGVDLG

[7] = molecular target: T8, hPUF_MT(R3→R5_C12N, R4→R5_C12N, R5_C12N); experiment: EMSA; strongest of the four
T8 chain: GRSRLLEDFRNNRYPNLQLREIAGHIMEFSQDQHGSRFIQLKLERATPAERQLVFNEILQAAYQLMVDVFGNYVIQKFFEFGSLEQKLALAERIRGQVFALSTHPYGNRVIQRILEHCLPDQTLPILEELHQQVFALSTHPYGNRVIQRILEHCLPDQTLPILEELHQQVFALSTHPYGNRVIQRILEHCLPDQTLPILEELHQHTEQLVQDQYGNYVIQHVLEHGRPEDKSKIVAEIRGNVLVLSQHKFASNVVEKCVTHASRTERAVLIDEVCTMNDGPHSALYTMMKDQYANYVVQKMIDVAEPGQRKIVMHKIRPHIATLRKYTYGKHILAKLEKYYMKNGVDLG

[8] = molecular target: T9, hPUF_MT(R3→R5, R4→R5, R5; all C12S,Q16R); experiment: EMSA; binds only to its target
T9 chain: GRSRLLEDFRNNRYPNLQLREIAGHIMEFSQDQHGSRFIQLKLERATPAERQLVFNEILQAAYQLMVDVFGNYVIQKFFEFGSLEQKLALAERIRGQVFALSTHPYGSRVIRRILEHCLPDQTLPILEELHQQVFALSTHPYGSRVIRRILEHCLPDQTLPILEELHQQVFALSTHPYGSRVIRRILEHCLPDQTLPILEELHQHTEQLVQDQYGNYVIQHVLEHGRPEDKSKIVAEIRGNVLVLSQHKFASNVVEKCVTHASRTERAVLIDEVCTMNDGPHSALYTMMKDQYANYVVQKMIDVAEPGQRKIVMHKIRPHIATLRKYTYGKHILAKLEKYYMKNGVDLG

[9] = molecular target: T10, hPUF_MT(R3→R5, R4→R5, R5; all C12S,Q16E); experiment: EMSA; binds only to its target
T10 chain: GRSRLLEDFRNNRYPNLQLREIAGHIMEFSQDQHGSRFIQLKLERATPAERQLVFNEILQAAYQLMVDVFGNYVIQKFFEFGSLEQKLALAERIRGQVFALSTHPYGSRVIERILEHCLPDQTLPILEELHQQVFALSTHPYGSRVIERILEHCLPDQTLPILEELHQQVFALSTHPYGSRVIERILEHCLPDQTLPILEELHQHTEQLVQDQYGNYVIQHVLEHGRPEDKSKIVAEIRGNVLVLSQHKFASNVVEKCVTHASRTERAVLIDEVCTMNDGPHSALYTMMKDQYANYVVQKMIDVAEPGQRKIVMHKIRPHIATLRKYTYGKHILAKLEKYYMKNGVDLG

[10] = molecular target: T11, hPUF_MT(R5:A_13R)3(R6:C_13Y)3; experiment: EMSA; best of three
T11 chain: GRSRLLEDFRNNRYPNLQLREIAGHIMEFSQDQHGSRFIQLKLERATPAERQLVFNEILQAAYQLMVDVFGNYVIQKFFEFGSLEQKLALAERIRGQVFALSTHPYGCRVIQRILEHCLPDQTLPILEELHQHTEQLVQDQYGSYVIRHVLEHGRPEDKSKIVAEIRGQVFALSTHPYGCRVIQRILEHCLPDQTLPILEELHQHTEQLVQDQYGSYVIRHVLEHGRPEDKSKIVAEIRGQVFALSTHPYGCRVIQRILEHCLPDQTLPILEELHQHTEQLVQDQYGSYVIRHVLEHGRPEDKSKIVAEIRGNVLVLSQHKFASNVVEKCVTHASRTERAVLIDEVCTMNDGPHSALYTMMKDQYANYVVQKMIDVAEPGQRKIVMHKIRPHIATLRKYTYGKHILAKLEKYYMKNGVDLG

[11] = molecular target: T10, hPUF_MT(R3→R5, R4→R5, R5; all C12S,Q16E); experiment: EMSA; stronger than A-recognising P8
[12] = molecular target: T8, hPUF_MT(R3→R5_C12N, R4→R5_C12N, R5_C12N); experiment: EMSA; binds only to its target
[13] = molecular target: T9, hPUF_MT(R3→R5, R4→R5, R5; all C12S,Q16R); experiment: EMSA; stronger than A-recognising P8
[14] = molecular target: T12, hPUF_MT(R5:A_13R)3(R6:G_13Y)3; experiment: EMSA; best of three
T12 chain: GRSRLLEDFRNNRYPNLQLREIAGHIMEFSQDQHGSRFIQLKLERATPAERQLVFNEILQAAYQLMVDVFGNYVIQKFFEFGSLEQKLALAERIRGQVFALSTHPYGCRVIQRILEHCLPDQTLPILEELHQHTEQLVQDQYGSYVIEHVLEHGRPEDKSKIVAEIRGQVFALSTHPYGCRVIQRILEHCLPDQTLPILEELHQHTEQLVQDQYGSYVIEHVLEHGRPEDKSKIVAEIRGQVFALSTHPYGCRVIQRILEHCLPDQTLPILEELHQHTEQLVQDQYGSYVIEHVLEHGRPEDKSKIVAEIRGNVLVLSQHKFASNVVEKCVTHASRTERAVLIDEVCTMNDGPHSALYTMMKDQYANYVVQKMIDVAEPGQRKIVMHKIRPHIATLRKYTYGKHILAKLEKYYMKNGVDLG

CCAGAAUUGCACAUAUUCG (ssRNA) [OTS-1979]
binding result [1]: binds

CCAGAAUUGUGUGUGUAUUCG (ssRNA) [OTS-2004 (Example 5-6)]
binding result [2]: binds

CCAGAAUUGUAAAUAUUCG (ssRNA) [OTS-1759]
binding result (hPUF_MT(R3→R5, R4→R5)): binds | binding result [3]: binds | binding result [4]: binds

CCAGAAUUGGAGAUAUUCG (ssRNA) [OTS-1978]
binding result [5]: binds

CCAGAAUUGAAAAUAUUCG (ssRNA) [OTS-1819]
binding signal [6]: ~0.01 fold of U-recognising type

CCAGAAUUGUUUUUAUUCG (ssRNA) [OTS-1841]
binding result [7]: binds | binding result [8]: no binding | binding result [9]: no binding

CCAGAAUUGCACACAUAUUCG (ssRNA) [OTS-2004 (Example 5-4)]
binding result [10]: binds

CCAGAAUUGUGGGUAUUCG (ssRNA) [OTS-1842]
binding result [11]: binds | binding result [8]: no binding | binding result [12]: no binding

CCAGAAUUGUCCCUAUUCG (ssRNA) [OTS-1843]
binding result [13]: binds | binding result [12]: no binding | binding result [9]: no binding

CCAGAAUUGGAGAGAUAUUCG (ssRNA) [OTS-2008]
binding result [14]: binds
